B1: Arabidopsis thaliana: xylose isomerase from donor organism Arabidopsis thaliana (protein, UniProt Q9FKK7 1-477, looked up)
Xylose isomerase: MKKVEFFMLLLCFIAASSLVSADPPTCPADLGGKCSDSDDWQGDFFPEIPKIKYEGPSSKNPLAYRWYNAEEEILGKKMKDWFRFSVAFWHTFRGTGGDPFGAATKYWPWEDGTNSVSMAKRRMRANFEFLKKLGVDWWCFHDRDIAPDGTTLEESNKNLDEVIELAKELQKGSKIKPLWGTAQLFLHPRYMHGGATSSEVGVYAYAAAQVKKAMEVTHYLGGENYVFWGGREGYQTLLNTDMGRELDHLARFFEAAVAYKKKIGFKGTLLIEPKPQEPTKHQYDWDAATAANFLRKYGLIDEFKLNIECNHATLSGHTCHHELETARINGLLGNIDANTGDAQTGWDTDQFLTDVGEATMVMMSVIKNGGIAPGGFNFDAKLRRESTDVEDLFIAHISGMDTMARGLRNAVKILEEGSLSELVRKRYATWDSELGKQIEEGKADFEYLEKKAKEFGEPKVSSAKQELAEMIFQSAM
B2: Psudomonas savastanoi: xylose isomerase from donor organism Psudomonas savastanoi (protein, UniProt Q48J73 1-438, looked up)
Xylose isomerase: MPYFPAVDKVRYEGPDSDSPLAFRHYDADKLILGKPMREHLRMAACYWHTFVWPGADMFGVGTFKRPWQGSGDPLELAIGKAETAFEFFSKLGIDYYSFHDTDVAPEGSSLKEYRNNFAQMIDQLERHQEQTGIKLLWGTANCFSNPRFAAGAASNPDPEVFAYAATQVFSAMNATQRLKGANYVLWGGREGYETLLNTDLRQEREQLGRFMRMVVEHKHKIGFKGDLLIEPKPQEPTKHQYDYDSATVFGFLQQYGLEKEIKVNIEANHATLAGHSFHHEIATAVSLGIFGSIDANRGDPQNGWDTDQFPNSVEEMTLATYEILKAGGFTNGGYNFDSKVRRQSLDEVDLFHGHVAAMDVLALALERAAAMVQNDKLQQFKDQRYAGWQQPFGKSLLAGEFSLESLAKHAFDKDLNPQAVSGRQELLEGVVNRFIYF
B3: XI-Rp10: chimera: first 10 amino acids of Piromyces xylose isomerase then amino acids 11 to 438 of Ruminococcus enzyme, SEQ ID NO. 58 (protein)
chain: MAKEYFPQIQQYQGPKSTDPLSFKYYNPEEVINGKTMREHLKFALSWWHTMGGDGTDMFGCGTTDKTWGQSDPAARAKAKVDAAFEIMDKLSIDYYCFHDRDLSPEYGSLKATNDQLDIVTDYIKEKQGDKFKCLWGTAKCFDHPRFMHGAGTSPSADVFAFSAAQIKKALESTVKLGGNGYVFWGGREGYETLLNTNMGLELDNMARLMKMAVEYGRSIGFKGDFYIEPKPKEPTKHQYDFDTATVLGFLRKYGLDKDFKMNIEANHATLAQHTFQHELRVARDNGVFGSIDANQGDVLLGWDTDQFPTNIYDTTMCMYEVIKAGGFTNGGLNFDAKARRGSFTPEDIFYSYIAGMDAFALGFRAALKLIEDGRIDKFVADRYASWNTGIGADIIAGKADFASLEKYALEKGEVTASLSSGRQEMLESIVNNVLFSL
B4: XI-Rp15: chimera: first 15 amino acids of Piromyces xylose isomerase then amino acids 16 to 438 of Ruminococcus enzyme, SEQ ID NO. 60 (protein)
chain: MAKEYFPQIQKIKFEKSTDPLSFKYYNPEEVINGKTMREHLKFALSWWHTMGGDGTDMFGCGTTDKTWGQSDPAARAKAKVDAAFEIMDKLSIDYYCFHDRDLSPEYGSLKATNDQLDIVTDYIKEKQGDKFKCLWGTAKCFDHPRFMHGAGTSPSADVFAFSAAQIKKALESTVKLGGNGYVFWGGREGYETLLNTNMGLELDNMARLMKMAVEYGRSIGFKGDFYIEPKPKEPTKHQYDFDTATVLGFLRKYGLDKDFKMNIEANHATLAQHTFQHELRVARDNGVFGSIDANQGDVLLGWDTDQFPTNIYDTTMCMYEVIKAGGFTNGGLNFDAKARRGSFTPEDIFYSYIAGMDAFALGFRAALKLIEDGRIDKFVADRYASWNTGIGADIIAGKADFASLEKYALEKGEVTASLSSGRQEMLESIVNNVLFSL
B5: Clostridium phytofermentans: xylose isomerase from donor organism Clostridium phytofermentans (protein)
chain: MKNYFPNVPEVKYEGPNSTNPFAFKYYDANKVVAGKTMKEHCRFALSWWHTLCAGGADPFGVTTMDRTYGNITDPMELAKAKVDAGFELMTKLGIEFFCFHDADIAPEGDTFEESKKNLFEIVDYIKEKMDQTGIKLLWGTANNFSHPRFMH
modifications: Clostridium phytofermentans
B6: Escherichia coli: xylose isomerase from donor organism Escherichia coli (protein, listed as Escherichia coli)
chain: MQAYFDQLDRVRYEGSKSSNPLAFRHYNPDELVLGKRMEEHLRFAACYWHTFCWNGADMFGVGAFNRPWQQPGEALALAKRKADVAFEFFHKLHVPFYCFHDVDVSPEGASLKEYINNFAQMVDVLAGKQEESGVKLLWGTANCFTNPRYGA
B7: Staphylococcus xylosus: xylose isomerase from donor organism Staphylococcus xylosus (protein, UniProt P27157 1-439, looked up)
Xylose isomerase: MSYFDINKVNYEGPKSNNAFSFKYYNPEEKLGNHSMSELLRFSVAYWHTFTADLSDPFGVGVAERDWDSLDEMEKAKARVEAIFEFMEKTRIDYFCFHDVDISPEGASLKESNENLDIIVELIKEKMDQTGKKLLWNTTNNFTHERFVHGAATSSNAEVFAYAAAKVKKSLEIAKKLGSENFVFWGGREGYESLLNTNMKLELDNLATFFKMAKSYADEIGYTGQFLIEPKPKEPTTHQYDTDVATAHAFLQKYDLDKDFKFNIEANHATLAGHTFQHELRYARDNNMLGSVDANQGHPLLGWDTDESTDVYDTTLAMYEILKNGGLAPGGLNFDAKPRRTSFKQEDLILTHIAGMDTFALGLRVAYKMIEDNFFENIMDEKYKSFNEGIGKKIVEGETSLKELEDYAFNINTINNTSDHLEVIKSQINQYILNINNKD
B8: R. flavefaciens, FD-1 XI: xylose isomerase of Ruminococcus flavefaciens FD1, ZP_06143883.1, SEQ ID NO: 110 (protein, listed as Ruminococcus flavefaciens)
chain: MEFFKNISKIPYEGKDSTNPLAFKYYNPDEVIDGKKMRDIMKFALSWWHTMGGDGTDMFGCGTADKTWGENDPAARAKAKVDAAFEIMQKLSIDYFCFHDRDLSPEYGSLKDTNAQLDIVTDYIKAKQAETGLKCLWGTAKCFDHPRFMHGAGTSPSADVFAFSAAQIKKALESTVKLGGTGYVFWGGREGYETLLNTNMGLELDNMARLMKMAVEYGRSIGFKGDFYIEPKPKEPTKHQYDFDTATVLGFLRKYGLDKDFKMNIEANHATLAQHTFQHELCVARTNGAFGSIDANQGDPLLGWDTDQFPTNIYDTTMCMYEVIKAGGFTNGGLNFDAKARRGSFTPEDIFYSYIAGMDAFALGYKAASKLIADGRIDSFISDRYASWSEGIGLDIISGKADMAALEKYALEKGEVTDSISSGRQELLESIVNNVIFNL
B9: XI-Rp5: chimera: first 5 amino acids of Piromyces xylose isomerase followed by Ruminococcus xylose isomerase, SEQ ID NO. 56 (protein)
chain: MAKEYFSNIGKIQYQGPKSTDPLSFKYYNPEEVINGKTMREHLKFALSWWHTMGGDGTDMFGCGTTDKTWGQSDPAARAKAKVDAAFEIMDKLSIDYYCFHDRDLSPEYGSLKATNDQLDIVTDYIKEKQGDKFKCLWGTAKCFDHPRFMHGAGTSPSADVFAFSAAQIKKALESTVKLGGNGYVFWGGREGYETLLNTNMGLELDNMARLMKMAVEYGRSIGFKGDFYIEPKPKEPTKHQYDFDTATVLGFLRKYGLDKDFKMNIEANHATLAQHTFQHELRVARDNGVFGSIDANQGDVLLGWDTDQFPTNIYDTTMCMYEVIKAGGFTNGGLNFDAKARRGSFTPEDIFYSYIAGMDAFALGFRAALKLIEDGRIDKFVADRYASWNTGIGADIIAGKADFASLEKYALEKGEVTASLSSGRQEMLESIVNNVLFSL

Columns and labels:
[1] = test system: engineered yeast (S. cerevisiae); assay: Heterologous xylose isomerase expression in yeast (active yes/no); type: cell-based; conditions: xylose isomerase of donor organism expressed in engineered yeast (S. cerevisiae)
[2] = Xylose isomerase activity/kinetic assay on soluble whole cell extract (sorbitol dehydrogenase coupled, NADH, A340); type: biochemical; conditions: for Km: xylose 40-500 mM
Description: […] Louis, Mo.), and about 2 U sorbitol dehydrogenase (Roche) at about 30° C. […] A Beckman DU-800 was utilized with an Enzyme Mechanism software package (Beckman Coulter, Inc.), and the change in the A340 was monitored for 2-3 minutes.
[…] Louis, Mo.), and 2 U Sorbitol Dehydrogenase (SDH) (Roche, Indianapolis, Ind.) at about 30° C. […] A Beckman DU-800 spectrophotometer was utilized with an Enzyme Mechanism software package (Beckman Coulter, Inc, Brea, Calif.), and the change in the A340 was monitored for 2-3 minutes.
[…] Louis, Mo.), and 2 U sorbitol dehydrogenase (SDH) (Roche, Indianapolis, Ind.) at about 30° C. […] A Beckman DU-800 spectrophotometer was utilized with an Enzyme Mechanism software package (Beckman Coulter, Inc, Brea, Calif.), and the change in the A340 was monitored for 2-3 minutes.
Approximately 20 μg of soluble whole cell extract from each transformed cell line was prepared using Y-PER plus reagent as described above was incubated in a solution containing about 100 mM Tris, pH 7.5, 10 mM MgCl ? 2, 0.15 mM NADH (Sigma, St. Louis, Mo.), and 2 U Sorbitol Dehydrogenase (SDH) (Roche, Indianapolis, Ind.) at about 30° C. […] A Beckman DU-800 spectrophotometer was utilized with an Enzyme Mechanism software package (Beckman Coulter, Inc, Brea, Calif.), and the change in the A340 was monitored for 2-3 minutes.

| Molecule | Active? (yes/no) [1] | Specific Activity ([2]; chimeric variants) | Km ([2]; chimeric variants) | other results |
| --- | --- | --- | --- | --- |
| Piromyces xylose isomerase: xylose isomerase from Piromyces strain E2, SEQ ID NO. 35 [reference compound] | Yes |  |  | Specific Activity ([2]; soluble whole cell extract, about 30° C.): 2.02 µmol/min/mg |
| B1 | No |  |  |  |
| B2 | No |  |  |  |
| B3 |  | 2.10 µmol/min/mg | 75.8 mM |  |
| B4 |  | 1.53 µmol/min/mg | 49.3 mM |  |
| B5 | Yes |  |  |  |
| B6 | No |  |  |  |
| B7 | No |  |  |  |
| B8 |  |  |  | activity (slope) at saturating xylose (FIG. 25) ([2]; 500 mM xylose, 100 μg total soluble crude extract, expressed in S. cerevisiae): highest activity of the candidates tested; specific activity relative to native XI control activity ([2]; xylose concentrations between 40 and 500 nM (so in the source)): greater than 2 fold |
| B9 |  | 1.45 µmol/min/mg | 66.5 mM |  |

Reference: patent US20120184020A1, “ENGINEERED MICROORGANISMS WITH ENHANCED FERMENTATION ACTIVITY” (Verdezyne, Inc., priority 2009, published 2012)
